Laboratory results reported in patent publication US20240239894A1, “THERAPEUTIC BINDING MOLECULES” (MedImmune Limited, priority 2020, published 2024).
“Also recorded” adds a separate entry of the source.

Assays:
HT29 hB7H4 clone 4 = assay: E02-GL MESF on cell line; assay type: cell-based, human
HT29-huB7-H4 Clone 26 = assay: Live cell imaging internalization; assay type: cell-based, human; conditions: 5 μg/mL Alexa Fluor 568 conjugate
Procedure: (§1) The internalization and intracellular trafficking properties of antibody E02-INT was evaluated using a quantitative live cell imaging assay in MX-1 human breast cancer cells and HT29 huB7-H4 Clone 26 human colon cancer cells overexpressing B7-H4.

MX-1 = assay: Live cell imaging internalization; assay type: cell-based, human; conditions: 5 μg/mL Alexa Fluor 568 conjugate
Procedure: as §1

[1] = tested on: MX-1 breast cancer xenograft; assay: Xenograft efficacy; assay type: in vivo, CB-17 SCID mice; conditions: 10 mg/kg
Procedure: The antitumor activity of antibody intermediate E02-INT and E02-GL-SG3932 was investigated in human tumor xenograft mouse models using immunodeficient CB-17 SCID mice.
The effect of E02-GL-SG3932, the isotype-matched control ADC NIP228-SG3932, and E02-INT, the antibody intermediate of E02-GL-SG3932 was evaluated in the MX-1 breast cancer xenograft model. Animals were injected SC with MX-1 cells and after tumors grew in volume to a mean of 270 mm3, animals were randomized and each mouse received an IV injection of test or control articles.

Zr75-1 = assay: E02-GL MESF on cell line; assay type: cell-based
HCC1569 = assay: E02-GL MESF on cell line; assay type: cell-based
SKBR3 = assay: E02-GL MESF on cell line; assay type: cell-based, human
[2] = tested on: HEK 293 Jump In TREX cells stably expressing human B7-H4; assay: Flow cytometry binding; assay type: cell-based
From the text: (§2) Flow cytometry was used to measure binding of antibody E02-INT to non-transduced HEK 293 Jump In TREX cells and to HEK 293 Jump In TREX cells stably expressing human, murine, or cynomolgus monkey B7-H4.

[3] = tested on: HEK 293 Jump In TREX cells stably expressing murine B7-H4; assay: Flow cytometry binding; assay type: cell-based; conditions: listed as E02-INT
From the text: as §2

[4] = tested on: HEK 293 Jump In TREX cells stably expressing cynomolgus monkey B7-H4; assay: Flow cytometry binding; assay type: cell-based
From the text: as §2

[5] = tested on: non-transduced HEK 293 Jump In TREX cells; assay: Flow cytometry binding; assay type: cell-based; conditions: B7-H4-negative
From the text: as §2

HCC1954 = assay: E02-GL MESF on cell line; assay type: cell-based
HEK293 JI parental = assay: E02-GL MESF on cell line; assay type: cell-based; conditions: B7-H4 negative
human B7-H4 antigen = biological target: T1, human B7-H4 antigen (Homo sapiens, UniProt Q7Z7D3); assay: SPR, antibody capture method; assay type: binding
T1 sequence (Q7Z7D3 25-282): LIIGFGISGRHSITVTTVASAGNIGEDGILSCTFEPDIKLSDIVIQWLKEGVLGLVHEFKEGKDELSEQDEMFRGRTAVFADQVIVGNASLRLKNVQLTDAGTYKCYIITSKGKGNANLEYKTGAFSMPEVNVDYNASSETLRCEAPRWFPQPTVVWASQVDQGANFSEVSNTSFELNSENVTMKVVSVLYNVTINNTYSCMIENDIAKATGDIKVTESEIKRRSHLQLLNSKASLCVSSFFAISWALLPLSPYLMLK
Procedure: To assess whether conjugation of the topoisomerase 1 linker-warhead affected binding properties of the E02-INT antibody, the binding affinity of E02-INT and E02-GL-SG3932 were measured using a DELFIA-ELISA method and an SPR method. […] The kinetic rate constants (kon and koff) and equilibrium dissociation constants (KD) of E02-INT and E02-GL-SG3932 for human B7-H4 antigen was also determined by SPR, using an antibody capture method.

HT29 = assay: E02-GL MESF on cell line; assay type: cell-based, human; conditions: HT29, B7-H4 negative
[6] = tested on: non-transfected HEK293 cells; assay: In vitro cytotoxicity; assay type: cell-based
From the text: The clone E02-GL was conjugated to the cytotoxin SG3249 (providing E02-GL-SG3249), and tested for the ability to target and kill both cynomolgus B7-H4 transfected and non-transfected B7-H4 cells. For convenience, the antibody tested in this example comprised the Maia heavy chain backbone (e.g. having a cysteine insertion providing an additional site to which SG3249 can conjugate, see SEQ ID NO: 48) was used. No loss of efficacy occurs where other heavy chain backbones (e.g. lacking such cysteine insertion, for example see SEQ ID NO: 52) is used. The antibody R347 conjugated to SG3249 was used as a control.

HCC1569 cells = assay: Western blot DNA damage response; assay type: cell-based; conditions: 100 ng/ml ADC, 100 pM SG3199
Procedure: Following treatment of HCC1569 cells with E02-GL-SG3249, and SG3199 as a control (at 100 ng/ml and 100 pM, respectively), lysate was prepared and subjected to western blot analysis with antibodies to pATR, ATR, pChk1, Chk1, pRPA32, RPA32, pATM, ATM (all involved in ATR signalling), pChk2, ChK2, pKAP1, KAP1 (all involved in ATM signalling), pDNA-PK, DNA-PK, pH2AX, H2AX, pBRCA1, BRCA1 (all involved in DNA double strand break), pFANCD2 and GAPDH (load control). Negative controls were PBS treatment alone.

Toxicology study = assay type: in vivo; conditions: male cynomolgus monkeys, N=2/dose level
Procedure: E02-GL-SG3249 was administered to male cynomolgus monkeys (N═2/dose level). The “E02-GL” antibody has the CDR/VH sequences (e.g. corresponds to) of ZY0EQD-E02 (“GL” means the antibody has been germlined).

[7] = tested on: HT29 WT (not expressing B7-H4); assay: Bystander killing in vitro (conditioned medium); assay type: cell-based, human; conditions: donor cells treated 4 days
Procedure: HT29 B7-H4 expressing cells were treated with E02-GL-SG3249 for 4 days, after which the conditioned medium was removed and added to HT29 WT (i.e. not expressing B7-H4).

B1: E02-GL: germlined ZY0EQD-E02, VH SEQ ID NO: 45, VL SEQ ID NO: 34; antibody intermediate of E02-GL-SG3932 (antibody, V domains shown)
VH: QVQLQQWGAGLLKPSETLSLACTVYGGSFSGYYWNWIRQPPGKGLEWIGEINHSGSTSYNPSLKSRVTISVDTSKNQFSLKLSSVTAADTAVYYCARVLYNWNVDSWGQGTLVTVSS
VL: DIQMTQSPSSLSASVGDRVTITCRASQDIRNDVGWYQQKPGKAPKRLIYAASRLQSGVPSRFSGSGSGTEFTLTISSLQPEDFATYYCLQHNSYPRTFGQGTKVEIK
- E02-GL MESF (HT29 hB7H4 clone 4): 71,928 MESF
- internalization half-life (HT29-huB7-H4 Clone 26): 127 (±35 SD) minutes
- internalization half-life (MX-1): 102 (±18 SD) minutes
- TGI [1]: −1%
- E02-GL MESF (Zr75-1): 80,699 MESF
- E02-GL MESF (HCC1569): 112,608 MESF
- E02-GL MESF (SKBR3): 78,343 MESF
- cellular binding [2]: bound
- cellular binding [3]: bound; also recorded: reduced compared to cells expressing human or cynomolgus monkey B7-H4
- cellular binding [4]: bound
- cellular binding [5]: did not bind
- E02-GL MESF (HCC1954): 47,173 MESF
- E02-GL MESF (HEK293 JI parental): 3,266 MESF
- Ka (human B7-H4 antigen): 93800 M⁻¹ s⁻¹
- Kd (human B7-H4 antigen): 31.1 nM
- Kd (s^−1) (human B7-H4 antigen): 0.00292 s⁻¹
- Rmax (RU) (human B7-H4 antigen): 56.8 RU
- E02-GL MESF (HT29): 2,101 MESF

B2: E02-GL-SG3249: clone E02-GL (Maia heavy chain backbone) conjugated to the PBD cytotoxin SG3249 (conjugate)
heavy: QVQLQQWGAGLLKPSETLSLACTVYGGSFSGYYWNWIRQPPGKGLEWIGEINHSGSTSYNPSLKSRVTISVDTSKNQFSLKLSSVTAADTAVYYCARVLYNWNVDSWGQGTLVTVSSASTKGPSVFPLAPSSKSTSGGTAALGCLVKDYFPEPVTVSWNSGALTSGVHTFPAVLQSSGLYSLSSVVTVPSSSLGTQTYICNVNHKPSNTKVDKRVEPKSCDKTHTCPPCPAPELLGGPSCVFLFPPKPKDTLMISRTPEVTCVVVDVSHEDPEVKFNWYVDGVEVHNAKTKPREEQYNSTYRVVSVLTVLHQDWLNGKEYKCKVSNKALPAPIEKTISKAKGQPREPQVYTLPPSREEMTKNQVSLTCLVKGFYPSDIAVEWESNGQPENNYKTTPPVLDSDGSFFLYSKLTVDKSRWQQGNVFSCSVMHEALHNHYTQKSLSLSPGK
light: DIQMTQSPSSLSASVGDRVTITCRASQDIRNDVGWYQQKPGKAPKRLIYAASRLQSGVPSRFSGSGSGTEFTLTISSLQPEDFATYYCLQHNSYPRTFGQGTKVEIKRTVAAPSVFIFPPSDEQLKSGTASVVCLLNNFYPREAKVQWKVDNALQSGNSQESVTEQDSKDSTYSLSSTLTLSKADYEKHKVYACEVTHQGLSSPVTKSFNRGEC
- cell killing [6]: No significant killing
- DNA damage response signalling (ATR, ATM, double strand break markers) (HCC1569 cells): leads to double strand DNA breaks
- toxicities (Toxicology study): No abnormal toxicities
- viability of HT29 WT after conditioned medium from treated HT29 B7-H4 expressing cells [7]: rapid decrease in cell viability
